Data as given in publication PMC13138344, “Embryonic stem cell factors DPPA2/4 amplify active H3K4me3–H2AK119ub chromatin domains in non-small cell lung cancer” (Genes & Development, 2026).

T1: developmental pluripotency-associated 2 (DPPA2) (human (endogenous in NCI-H661), UniProt Q7Z7J5 1-298)
T1 construct: DPPA2, human, endogenous in NCI-H661 non-small cell lung cancer cells; source: endogenous, NCI-H661 whole-cell lysate (IP-MS); endogenous, NCI-H661 double-cross-linked chromatin (RIME)
T1 sequence (looked up): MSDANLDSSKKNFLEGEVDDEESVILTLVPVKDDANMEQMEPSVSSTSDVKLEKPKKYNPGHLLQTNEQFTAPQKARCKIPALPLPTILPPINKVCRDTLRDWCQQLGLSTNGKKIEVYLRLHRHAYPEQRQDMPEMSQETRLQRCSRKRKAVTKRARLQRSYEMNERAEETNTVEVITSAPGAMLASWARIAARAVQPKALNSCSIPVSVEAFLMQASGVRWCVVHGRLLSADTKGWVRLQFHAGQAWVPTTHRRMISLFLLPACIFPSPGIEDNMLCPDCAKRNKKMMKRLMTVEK

B1: recombinant His-DPPA4 protein (natural protein, human, UniProt Q7L190 1-304, looked up)
chain: MLRGSASSTSMEKAKGKEWTSTEKSREEDQQASNQPNSIALPGTSAKRTKEKMSIKGSKVLCPKKKAEHTDNPRPQKKIPIPPLPSKLPPVNLIHRDILRAWCQQLKLSSKGQKLDAYKRLCAFAYPNQKDFPSTAKEAKIRKSLQKKLKVEKGETSLQSSETHPPEVALPPVGEPPALENSTALLEGVNTVVVTTSAPEALLASWARISARARTPEAVESPQEASGVRWCVVHGKSLPADTDGWVHLQFHAGQAWVPEKQEGRVSALFLLPASNFPPPHLEDNMLCPKCVHRNKVLIKSLQWE
notes: DPPA4, human, recombinant; The construct is named only in the EMSA legend; also called recombinant DPPA4; source: recombinant

Legend:
[1] = molecular target: B1; assay: mass photometry; recombinant DPPA2 and DPPA4 in vitro, each on its own and together; details: both partners purified
[2] = molecular target: the molecule itself; assay: as above
[3] = molecular target: T1, developmental pluripotency-associated 2 …; assay: affinity purification with mass spectrometry; IP of endogenous DPPA2 or DPPA4 from NCI-H661 whole-cell lysates, species-matched IgG IP control, label-free quantitation, n = 4 per condition; details: partners not purified

binding result [1]	ratio between DPPA2 and DPPA4 (iBAQ) in the DPPA2 IP [3]	Binder	binding result [2]
binds		recombinant DPPA2-Myc/FLAG protein (natural protein, human, UniProt Q7Z7J5 1-298, looked up, DPPA2, human, recombinant; The construct is named only in the EMSA legend; source: recombinant) MSDANLDSSKKNFLEGEVDDEESVILTLVPVKDDANMEQMEPSVSSTSDVKLEKPKKYNPGHLLQTNEQFTAPQKARCKIPALPLPTILPPINKVCRDTLRDWCQQLGLSTNGKKIEVYLRLHRHAYPEQRQDMPEMSQETRLQRCSRKRKAVTKRARLQRSYEMNERAEETNTVEVITSAPGAMLASWARIAARAVQPKALNSCSIPVSVEAFLMQASGVRWCVVHGRLLSADTKGWVRLQFHAGQAWVPTTHRRMISLFLLPACIFPSPGIEDNMLCPDCAKRNKKMMKRLMTVEK	binds
	> 1	developmental pluripotency-associated 4 (DPPA4) (natural protein, human (endogenous in NCI-H661), UniProt Q7L190 1-304, looked up, DPPA4, human, endogenous in NCI-H661 non-small cell lung cancer cells; source: endogenous, NCI-H661 whole-cell lysate (IP-MS); endogenous, NCI-H661 double-cross-linked chromatin (RIME)) MLRGSASSTSMEKAKGKEWTSTEKSREEDQQASNQPNSIALPGTSAKRTKEKMSIKGSKVLCPKKKAEHTDNPRPQKKIPIPPLPSKLPPVNLIHRDILRAWCQQLKLSSKGQKLDAYKRLCAFAYPNQKDFPSTAKEAKIRKSLQKKLKVEKGETSLQSSETHPPEVALPPVGEPPALENSTALLEGVNTVVVTTSAPEALLASWARISARARTPEAVESPQEASGVRWCVVHGKSLPADTDGWVHLQFHAGQAWVPEKQEGRVSALFLLPASNFPPPHLEDNMLCPKCVHRNKVLIKSLQWE	
		B1	binds
